{
  "source": "patent US20250122303A1",
  "about": "“TREATMENT AND PREVENTION OF CANCER USING HER3 ANTIGEN-BINDING MOLECULES” (Hummingbird Bioscience Pte. Ltd., priority 2021, published 2025)",
  "key": {"[1]": {"biological_target": "human HER3 expressed on cells (HEK293 HER3 O/E cells) (human) (UniProt P21860)", "assay": "flow cytometry on HEK293T HER3 O/E cells, 10 ug antibody as printed, FITC-conjugated anti-Fc secondary"}, "[2]": {"biological_target": "FcRn (human) (UniProt P55899)", "assay": "Bio-Layer Interferometry (determined as described in Example 7)"}, "[3]": {"biological_target": "FcgRIIIA (F158) (human) (UniProt P08637)", "assay": "Bio-Layer Interferometry (determined as described in Example 7)"}, "[4]": {"biological_target": "moFcRn (mouse) (UniProt Q61559)", "assay": "Bio-Layer Interferometry (determined as described in Example 7)"}, "[5]": {"biological_target": "His-tagged FcγRIIIa (V158) (human) (UniProt P08637)", "assay": "Bio-Layer Interferometry (determined as described in Example 7)"}, "[6]": {"biological_target": "moFcgRIV", "assay": "Bio-Layer Interferometry (determined as described in Example 7)"}, "[7]": {"biological_target": "human HER3 expressed on cells (HEK293 HER3 O/E cells) (human) (UniProt P21860)", "assay": "flow cytometry, HEK293 cells overexpressing human HER3, 20 ug/ml antibody, FITC anti-Fc secondary; same antibody on WT HEK293: 1.68"}, "[8]": {"biological_target": "human HER3 expressed on cells (HEK293 HER3 O/E cells) (human) (UniProt P21860)", "assay": "flow cytometry, HEK293 cells overexpressing human HER3, 20 ug/ml antibody, FITC anti-Fc secondary; same antibody on WT HEK293: 0.07"}},
  "data": [
    {"substance": "hIgG1 Isotype (antibody)", "values": [
      {"measurement": "% Parent (HER3 positive)", "setting": "[1]", "result": 0.18, "unit": "%"}
    ]},
    {"substance": "LJM716 (antibody)", "values": [
      {"measurement": "Kd", "setting": "[2]", "result": 16.5, "unit": "nM"},
      {"measurement": "Kd", "setting": "[3]", "result": 5380, "unit": "nM"},
      {"measurement": "Kd", "setting": "[4]", "result": 12.8, "unit": "nM"},
      {"measurement": "Kd", "setting": "[5]", "result": 705, "unit": "nM"},
      {"measurement": "Kd", "setting": "[6]", "result": 701, "unit": "nM"}
    ]},
    {"substance": "Isotype (antibody)", "values": [
      {"measurement": "% Parent (HE3 positive)", "setting": "[7]", "result": 13.9, "unit": "%"},
      {"measurement": "% Parent (HER3 positive)", "setting": "[8]", "result": 0.12, "unit": "%"}
    ]}
  ]
}
